target: C3b (biotinylated, captured site-specifically on a streptavidin chip) (UniProt P01024); assay: SPR (Biacore 3000), single-cycle kinetics, biotinylated C3b on streptavidin chip, peptide as analyte, 1:1 Langmuir fit

| Substance | koff | kon | Kd |
| --- | --- | --- | --- |
| Peptide 9: Tyr(Me)-Ile-[Cys-Val-Trp(Me)-Gln-Asp-Trp-Sar-Ala-His-Arg-Cys]-mIle-NH2 | 0.0026 s⁻¹ | 2.3e+06 M⁻¹ s⁻¹ |  |
| Peptide 18: D-Ala-Ile-[Cys-Val-Trp(Me)-Gln-Asp-Trp-Sar-Ala-His-Arg-Cys]-mIle-NH2 | 0.0034 s⁻¹ | 1.4e+06 M⁻¹ s⁻¹ | 2.5 nM |

More lines, in order of falling Kd, values ahead:

| koff | kon | Kd | Substance |
| --- | --- | --- | --- |
| 0.0027 s⁻¹ | 1.8e+06 M⁻¹ s⁻¹ | 1.5 nM | Peptide 17: D-Cha-Ile-[Cys-Val-Trp(Me)-Gln-Asp-Trp-Sar-Ala-His-Arg-Cys]-mIle-NH2 |
| 0.0024 s⁻¹ | 2e+06 M⁻¹ s⁻¹ | 1.2 nM | Peptide 16: D-Trp-Ile-[Cys-Val-Trp(Me)-Gln-Asp-Trp-Sar-Ala-His-Arg-Cys]-mIle-NH2 |
| 0.0026 s⁻¹ | 2.3e+06 M⁻¹ s⁻¹ | 1.1 nM | Peptide 15: D-Phe-Ile-[Cys-Val-Trp(Me)-Gln-Asp-Trp-Sar-Ala-His-Arg-Cys]-mIle-NH2 |

Reference: patent US20210032291A1, “Compstatin Analogs With Improved Pharmacokinetic Properties” (The Trustees of the University of Pennsylvania, priority 2011, published 2021)
